In paper PMC6004067:
Where a chain is given by its changes, count along the chain named. Numbers in names are those of the source.

B1: TFIIB, full-length human, Flag- and His-tagged, Q00403 V245A; P246A; G247A; R248A; S249A (protein)
chain: MASTSRLDALPRVTCPNHPDAILVEDYRAGDMICPECGLVVGDRVIDVGSEWRTFSNDKATKDPSRVGDSQNPLLSDGDLSTMIGKGTGAASFDEFGNSKYQNRRTMSSSDRAMMNAFKEITTMADRINLPRNIVDRTNNLFKQVYEQKSLKGRANDAIASACLYIACRQEGVPRTFKEICAVSRISKKEIGRCFKLILKALETSVDLITTGDFMSRFCSNLCLPKQVQMAATHIARKAVELDLAAAAAPISVAAAAIYMASQASAEKRTQKEIGDIAGVADVTIRQSYRLIYPRAPDLFPTDFKFDTPVDKLPQL
B2: TFIIB, full-length human, Flag- and His-tagged, Q00403 R169E; K188E (protein)
chain: B1 chain with R169E, K188E, A245V, A246P, A247G, A248R, A249S
B3: TFIIB, full-length human, Flag- and His-tagged, Q00403 R169E (protein)
chain: B1 chain with R169E, A245V, A246P, A247G, A248R, A249S
B4: TFIIB, full-length human, Flag- and His-tagged, Q00403 R185A; K188A; K189A (protein)
chain: B1 chain with R185A, K188A, K189A, A245V, A246P, A247G, A248R, A249S
B5: TFIIB, full-length human, Flag- and His-tagged, Q00403 S205A; V206A; D207A; L208A; I209A (protein)
chain: B1 chain with S205A, V206A, D207A, L208A, I209A, A245V, A246P, A247G, A248R, A249S

Assays:
[1] = target: SNAP complex (SNAPc) immobilized on Strep-Tactin beads, Q5SXM2;Q92966;Q13487;Q16533;O75971; assay: pull-down on immobilized SNAPc, immunoblot quantification; conditions: chain shown with the change
[2] = target: SNAP complex (SNAPc), Q5SXM2;Q92966;Q13487;Q16533;O75971; assay: Flag-bead pull-down, immunoblot quantification; conditions: chain shown with the change

Binder	ratio to parent [1]	ratio to parent [2]
B1	0.57	
B2		0.13
B3		0.32
B4	0.04	
B5	0.54	
